The EC50 is the concentration that produces a half-maximal response. Low values mean an effect from little substance, high ones a need for much substance.

Assay [1] has as its target T1, alphaVBeta5 (αVβ5) integrin heterodimer (UniProt P06756 31-992; P18084 24-719).
T1 construct: Heterodimer used in ELISA; source and construct not described; also called aVB5
Description: ELISA; printed as ED50 (median effective dose).

The target of assay [2] is T1, alphaVBeta5 (αVβ5) integrin heterodimer. Description: ELISA, average of 5 experiments normalized to VTN-FL. Background: An ELISA detects its analyte on a solid surface through an enzyme-linked reagent.
The target is the same in assay [3]. The assay can be described thus: ELISA.

T1 sequence (P06756 31-992, chain 1 of 2): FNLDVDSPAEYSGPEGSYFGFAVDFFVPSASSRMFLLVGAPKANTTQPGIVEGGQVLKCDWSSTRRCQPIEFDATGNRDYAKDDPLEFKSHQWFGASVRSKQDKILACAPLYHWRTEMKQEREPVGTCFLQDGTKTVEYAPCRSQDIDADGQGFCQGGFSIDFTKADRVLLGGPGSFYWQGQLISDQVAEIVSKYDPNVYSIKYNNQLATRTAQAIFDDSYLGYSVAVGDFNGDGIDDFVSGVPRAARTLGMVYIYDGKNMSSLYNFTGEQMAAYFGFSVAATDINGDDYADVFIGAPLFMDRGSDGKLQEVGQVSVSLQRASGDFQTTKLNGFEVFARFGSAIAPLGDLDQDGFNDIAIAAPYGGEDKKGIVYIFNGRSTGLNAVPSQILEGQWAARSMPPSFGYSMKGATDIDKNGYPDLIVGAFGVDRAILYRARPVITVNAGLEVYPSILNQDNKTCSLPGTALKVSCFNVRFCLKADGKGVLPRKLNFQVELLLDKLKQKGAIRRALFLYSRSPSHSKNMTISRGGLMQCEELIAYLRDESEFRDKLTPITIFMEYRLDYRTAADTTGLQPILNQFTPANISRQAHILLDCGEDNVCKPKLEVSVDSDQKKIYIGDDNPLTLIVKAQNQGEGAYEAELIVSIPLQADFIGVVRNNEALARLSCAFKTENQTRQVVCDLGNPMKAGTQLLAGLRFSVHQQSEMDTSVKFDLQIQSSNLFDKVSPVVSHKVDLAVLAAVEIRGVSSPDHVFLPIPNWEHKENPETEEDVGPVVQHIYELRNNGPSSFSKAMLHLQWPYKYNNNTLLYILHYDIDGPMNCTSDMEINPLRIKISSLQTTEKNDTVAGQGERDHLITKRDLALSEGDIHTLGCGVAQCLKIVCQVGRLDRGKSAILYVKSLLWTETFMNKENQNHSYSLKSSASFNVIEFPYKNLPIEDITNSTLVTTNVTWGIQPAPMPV
T1 sequence (P18084 24-719, chain 2 of 2): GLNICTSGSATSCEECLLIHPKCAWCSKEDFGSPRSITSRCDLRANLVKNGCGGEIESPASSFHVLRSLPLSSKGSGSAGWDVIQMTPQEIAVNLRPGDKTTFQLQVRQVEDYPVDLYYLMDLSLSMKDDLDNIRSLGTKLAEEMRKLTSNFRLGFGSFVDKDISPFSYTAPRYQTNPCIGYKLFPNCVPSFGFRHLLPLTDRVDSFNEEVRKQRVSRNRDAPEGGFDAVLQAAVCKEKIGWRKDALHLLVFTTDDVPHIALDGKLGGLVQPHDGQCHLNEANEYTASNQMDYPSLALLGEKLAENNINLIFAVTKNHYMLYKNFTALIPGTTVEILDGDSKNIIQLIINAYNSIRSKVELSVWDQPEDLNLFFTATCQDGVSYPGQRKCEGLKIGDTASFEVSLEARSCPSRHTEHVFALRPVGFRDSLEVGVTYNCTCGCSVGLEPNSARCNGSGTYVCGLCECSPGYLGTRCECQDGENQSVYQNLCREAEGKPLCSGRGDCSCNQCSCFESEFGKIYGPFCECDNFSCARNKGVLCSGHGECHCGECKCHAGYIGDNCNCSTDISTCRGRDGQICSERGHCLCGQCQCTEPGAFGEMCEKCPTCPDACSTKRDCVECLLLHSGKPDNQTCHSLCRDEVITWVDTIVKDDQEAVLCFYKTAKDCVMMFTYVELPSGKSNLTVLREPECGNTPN

B1: VTN62-292 T63G, V67N, F68P (ligand)
chain: VGRGDNPTMPEDEYTVYDDGEEKNNATVHEQVGGPSLTSDLQAQSKGNPEQTPVLKPEEEAPAPEVGASKPEGIDSRPETLHPGRPQPPAEEELCSGKPFDAFTDLKNGSLFAFRGQYCYELDEKAVRPGYPKLIRDVWGIEGPIDAAFTRINCQGKTYLFKGSQYWRFEDGVLDPDYPRNISDGFDGIPDNVDAALALPAHSYSGRERVYFFKGKQYWEYQFQHQPSQEEHHHHHH
notes: also called VN-3
As to B1, the EC50 in assay [1] was 0.523 µg/mL. Also, the “fold increase in ED50” value in assay [2] is above 7 fold.

B2: VTN62-292,D80Y (ligand)
chain: MVTRGDVFTMPEDEYTVYDYGEEKNNATVHEQVGGPSLTSDLQAQSKGNPEQTPVLKPEEEAPAPEVGASKPEGIDSRPETLHPGRPQPPAEEELCSGKPFDAFTDLKNGSLFAFRGQYCYELDEKAVRPGYPKLIRDVWGIEGPIDAAFTRINCQGKTYLFKGSQYWRFEDGVLDPDYPRNISDGFDGIPDNVDAALALPAHSYSGRERVYFFKGKQYWEYQFQHQPSQEEHHHHHH
notes: also called D80Y mutant
With B2, the “fold increase in binding affinity” value in assay [3] was around 2 fold.

The values above are taken from patent US20240368253A1 (BIO TECHNE, published 2024).
